Here are results for 1 molecule from article PMC13343191, “APE1 binds and processes abasic sites present in i-motif DNA and cooperates with PCBP1 in maintenance of telomeric stability”.

One data set deals with APE1 NΔ33 (UniProt P27695 34-318, del1-33). The data set can be described thus: southwestern blot; switchSENSE: MES pH 5.5 (APE1) or 6.5 (iMab); UV-crosslinking: 50 mM Tris-acetate pH 5.5, 50 mM KCl, 1 mM DTT, 0.8% glycerol, 0.4 mM EDTA, 4°C; NMR: 50 mM NaCl, 10 mM MES pH 5.5, 1 mM DTT, 25°C; SMADNE: 25 mM MES pH 5.5, 150 mM NaCl, 0.1 mg/ml BSA, 1 mM DTT, 1 mM Trolox. The settings on record: protein: recombinant; tags: GST (Factor Xa cleavable, pGEX-3X) or His/GFP (pTAC-MAT); label: 5' IRDye800 (SWB, UV-crosslinking); i-motif, intramolecular.
APE1 NΔ33, sequence (P27695 34-318, stated change not applied): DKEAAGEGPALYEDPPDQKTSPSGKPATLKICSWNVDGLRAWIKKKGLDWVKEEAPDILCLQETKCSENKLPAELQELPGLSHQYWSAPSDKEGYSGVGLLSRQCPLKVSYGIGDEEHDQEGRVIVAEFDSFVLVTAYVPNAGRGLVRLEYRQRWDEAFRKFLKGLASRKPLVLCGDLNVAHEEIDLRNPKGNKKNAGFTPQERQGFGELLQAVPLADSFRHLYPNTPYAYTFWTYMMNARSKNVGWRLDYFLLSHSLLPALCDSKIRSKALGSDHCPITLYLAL

The next data set addresses APE1 WT (UniProt P27695 1-318). The description is as above. Conditions: protein: recombinant; tags: GST (Factor Xa cleavable, pGEX-3X) or His/GFP (pTAC-MAT); label: 5' IRDye800 (SWB, UV-crosslinking); i-motif, intramolecular.

APE1 WT, sequence (P27695 whole entry): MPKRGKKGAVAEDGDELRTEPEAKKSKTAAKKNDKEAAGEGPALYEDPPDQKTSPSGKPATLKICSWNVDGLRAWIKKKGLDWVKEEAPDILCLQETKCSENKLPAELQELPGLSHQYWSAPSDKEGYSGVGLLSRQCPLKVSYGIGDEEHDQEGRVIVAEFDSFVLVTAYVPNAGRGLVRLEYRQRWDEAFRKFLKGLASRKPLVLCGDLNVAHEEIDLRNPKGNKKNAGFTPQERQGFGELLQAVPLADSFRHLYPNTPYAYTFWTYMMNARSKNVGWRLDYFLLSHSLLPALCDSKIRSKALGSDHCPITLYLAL

B1: C-NAT (structured_DNA)
DNA: TAACCCTAACCCTAACCCTAACCCTAA
B1: the binding result in the data set with APE1 NΔ33 and with APE1 WT was “binds” in each case.
